Results from patent publication US20220195455.

Tests used:
[1] = target: T1, ARF6 octapeptide GKVLSKIF
T1 chain: GKVLSKIF

[2] = target: T2, ARL2 octapeptide GLLTILKK
T2 chain: GLLTILKK

[3] = target: T3, ARL6 octapeptide GLLDRLSV
T3 chain: GLLDRLSV

[4] = target: T4, DDX46 octapeptide GRESRHYR
T4 chain: GRESRHYR

[5] = target: T5, DEGS1 octapeptide GSRVSRED
T5 chain: GSRVSRED

[6] = target: T6, FRS2 octapeptide GSCCSCPD
T6 chain: GSCCSCPD

FYN octapeptide GCVQCKDK = target: T7, FYN octapeptide GCVQCKDK
T7 chain: GCVQCKDK

[7] = target: T8, GNAZ octapeptide GCRQSSEE
T8 chain: GCRQSSEE

[8] = target: T9, LANCL2 octapeptide GETMSKRL
T9 chain: GETMSKRL

LNP octapeptide GGLFSRWR = target: T10, LNP octapeptide GGLFSRWR
T10 chain: GGLFSRWR

LYN octapeptide GCIKSKGK = target: T11, LYN octapeptide GCIKSKGK
T11 chain: GCIKSKGK

[9] = target: T12, MARCKS octapeptide GAQFSKTA
T12 chain: GAQFSKTA

[10] = target: T13, MARCKSL1 octapeptide GSQSSKAP
T13 chain: GSQSSKAP

[11] = target: T14, NAA40 octapeptide GRKSSKAK
T14 chain: GRKSSKAK

[12] = target: T15, NDUFAF4 octapeptide GALVIRGI
T15 chain: GALVIRGI

[13] = target: T16, NDUFB7 octapeptide GAHLVRRY
T16 chain: GAHLVRRY

[14] = target: T17, NOL3 octapeptide GNAQERPS
T17 chain: GNAQERPS

[15] = target: T18, PSMC1 octapeptide GQSQSGGH
T18 chain: GQSQSGGH

[16] = target: T19, REP15 octapeptide GQKASQQL
T19 chain: GQKASQQL

[17] = target: T20, RNF11 octapeptide GNCLKSPT
T20 chain: GNCLKSPT

RP2 octapeptide GCFFSKRR = target: T21, RP2 octapeptide GCFFSKRR
T21 chain: GCFFSKRR

[18] = target: T22, SCYL3 octapeptide GSENSALK
T22 chain: GSENSALK

[19] = target: T23, Src8(G2A) mutant octapeptide Ala-Ser-Asn-Lys-Ser-Lys-Pro-Lys
T23 chain: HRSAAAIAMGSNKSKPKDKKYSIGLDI

[20] = target: T24, YES1 octapeptide GCIKSKEN
T24 chain: GCIKSKEN

[21] = target: T25, ZNRF2 octapeptide GAKQSGPA
T25 chain: GAKQSGPA

B1: N-myristoyltransferase 1, full length (protein)
chain: MADESETAVKPPAPPLPQMMEGNGNGHEHCSDCENEEDNSYNRGGLSPANDTGAKKKKKKQKKKKEKGSETDSAQDQPVKMNSLPAERIQEIQKAIELFSVGQGPAKTMEEASKRSYQFWDTQPVPKLGEVVNTHGPVEPDKDNIRQEPYTLPQGFTWDALDLGDRGVLKELYTLLNENYVEDDDNMFRFDYSPEFLLWALRPPGWLPQWHCGVRVVSSRKLVGFISAIPANIHIYDTEKKMVEINFLCVHKKLRSKRVAPVLIREITRRVHLEGIFQAVYTAGVVLPKPVGTCRYWHRSLNPRKLIEVKFSHLSRNMTMQRTMKLYRLPETPKTAGLRPMETKDIPVVHQLLTRYLKQFHLTPVMSQEEVEHWFYPQENIIDTFVVENANGEVTDFLSFYTLPSTIMNHPTHKSLKAAYSFYNVHTQTPLLDLMSDALVLAKMKGFDVFNALDLMENKTFLEKLKFGIGDGNLQYYLYNWKCPSMGAEKVGLVLQ
[1]
  Km: 4.4 µM
  Vmax: 13.6 µM/min
[2]
  Km: 0.4 µM
  Vmax: 1.2 µM/min
[3]
  Km: < 0.1 µM
  Vmax: 1.8 µM/min
[4]
  Km: < 0.1 µM
  Vmax: 2 µM/min
[5]
  Km: 79.2 µM
  Vmax: 12.9 µM/min
[6]
  Km: 28.2 µM
  Vmax: 54.7 µM/min
FYN octapeptide GCVQCKDK
  Km: 5.2 µM
  Vmax: 54.9 µM/min
[7]
  Km: 15.7 µM
  Vmax: 64.4 µM/min
[8]
  Km: 13 µM
  Vmax: 5.3 µM/min
LNP octapeptide GGLFSRWR
  Km: 10.3 µM
  Vmax: 21.9 µM/min
LYN octapeptide GCIKSKGK
  Km: 22.5 µM
  Vmax: 64.7 µM/min
[9]
  Km: 38.4 µM
  Vmax: 6.4 µM/min
[10]
  Km: 11.7 µM
  Vmax: 6.6 µM/min
[11]
  Km: 1.2 µM
  Vmax: 1.8 µM/min
[12]
  Km: 0.5 µM
  Vmax: 1.2 µM/min
[13]
  Km: 16.4 µM
  Vmax: 2.8 µM/min
[14]
  Km: 1.4 µM
  Vmax: 2 µM/min
[15]
  Km: 40 µM
  Vmax: 9.6 µM/min
[16]
  Km: 15.7 µM
  Vmax: 3.4 µM/min
[17]
  Km: 16.7 µM
  Vmax: 61.1 µM/min
RP2 octapeptide GCFFSKRR
  Km: 13.6 µM
  Vmax: 60.8 µM/min
[18]
  Km: 0.8 µM
  Vmax: 1.7 µM/min
[19]
  Km: < 0.1 µM
  Vmax: 1 µM/min
[20]
  Km: 14.4 µM
  Vmax: 61 µM/min
[21]
  Km: 2 µM
  Vmax: 1.6 µM/min
